Assay results reported in the nanobody polyreactivity screen of Harvey et al. (2022).

Test: yeast display, Sf9 membrane polyspecificity reagent, FACS + sequencing; frameworks hold sequencing errors
Summary of the method: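 Sorting gates, low and high (top ~1%), were placed on anti-HA fluorescence to track expression and on streptavidin fluorescence to track reagent binding. A clone's polyreactivity label is taken from the gate it came out of. The reagent was 10% biotinylated, detergent-solubilized Sf9 membrane, applied for 1 hour at 4 °C to galactose-induced yeast display cells.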

Sequence | polyreactivity (PSR sort gate)
QVQLVESGGGLVQAGGSLRISCAASGSILFGNAMGWYRQAPGKERELVAAITVSGGSTYYADSVKGRFTISRDNAKNTVYLQMNSLKPEDTAVYYCAAVSLFRDSQFDYWGQGTQVTVSS | low polyreactivity
QVQLVESGGGLVQAGGSLRISCAASGSTFASTALGRYRLAAGKEMELVASISGSGGSTFYADSVKGRFTISRDNAKNTVYLQMNSLKPEDTEVYYCAAYKEPYYEEYGYGGQGTQVTVSS | low polyreactivity
QVQLVESGGGLVQAGGSLRISCAASGSTFFLYAMGWYRQAPGKERELVAAISTTGGSTNYADSVKGRFTISRDNAKYTFELQINSLKPEDTAVYYCAAGPSAQSIYDHWGQGTQVTVSS | low polyreactivity
QVQLVESGGGLVQAGGSLRISCAASGSTFKIYAMGWYRQAPGKERELVAAITGGGSSTYYADSVKGRFTISRDNSKNTVYLQMNSLKPEDTAVYYCAADLSGADSTGDYYYWGQGTQVTVSS | low polyreactivity
QVQLVESGGGLVQAGGSLRISCAASGSTFLINAMGWYRQAPGKERELVAAIRYSGGRTYYADSVKGRFTISRDNAKNTVYLQMNSLKPEDTAVYYCNARPYRSQIGVHYDYWGQGTQVTVSS | high polyreactivity
QVQLVESGGGLVQAGGSLRISCAASGSTFLYYAMGWYRQAPGKERELVAAISWDGGNTYYADSVKGRFTISRDNAKNTVYLQMNSLKPEDTAVYYFAAKHYGSYLYWFGSDYWGQGTQVTVSS | high polyreactivity
QVQLVESGGGLVQAGGSLRISCAASGSTFSDYDMVWYRQAPGKERELVAAISKRGGSTDYADSVKGRFTFSRDNAKITVYLQMNSLKPEDTAVYYCAKDGTHGYDYWGQGTQVTVSS | low polyreactivity
QVQLVESGGGLVQAGGSLRISCAASGSTFVSYAMGWYRQAPGKERELVATISWRGGSTYYADSVKGRFTISRDNAKNRDYLHMNSLNPEDTAVYYCAADLWHSQYYYGYEYWGQGSQVTVSS | low polyreactivity
QVQLVESGGGLVQAGGSLRISCAASGSTIGVNAMGLYRQAPGKEMELVAAISVSGGRTYYADSVKGRFTISRDYAKNTVYLQMNSLKPEDTAVYYCAATTYIWPYDYWGQGTQVNVSS | low polyreactivity
QVQLVESGGGLVQAGGSLRISCAASGSTLRSNAMGWYRQAPGKERELVASISSGGSTSYADSVKGRFPISRDNAKNTVYFQMNSLKPEDTAVLYCAADGTLTLYRYILDYWGQGTQVTVSS | low polyreactivity
QVQLVESGGGLVQAGGSLRISCAASGSTSLYYAMGWYSQAPGKEREFVAANTWSGGSTYYADSVKGRFTISRDNAKNSVYLQMNSLQPVDTAVDYWAARSYGYSAGYYWRQGTQVTVSS | high polyreactivity
QVQLVESGGGLVQAGGSLRISCAASGYIFKYAMGWYRQAPGKERELVAAISRRGGSTYYADSVKGRFTISRDNAKNTVYLQMNSLKPEDTEVYYCAARLPGYYGIGDYWGQGTQVTVSS | high polyreactivity
QVQLVESGGGLVQAGGSLRISCAATGRIFGPYTMGWYRQAPGKERELVARISRRGGSTYYADSVKGRFTISRDNAKNTVYFQMNSLKPEDTAVYYCARSQAVYDGWFAKFGYWGQGTQVTVSS | high polyreactivity
QVQLVESGGGLVQAGGSLRISCAAYGTIFSDYAMGWYKQAPGKERELVAAISSGGNTNYADSVKGRFTISRDNAKNTVYLQMNSLKPEDTAVYYCAAVYNTTYTLLPEYSDVKYYYWGQGTQVTVSS | low polyreactivity
QVQLVESGGGLVQAGGSLRISCADSGSIFRRYAMGWYRQAPGKERELVAAISIGGGSTYYADSVKGRFTISRDNAKNTVYLLMTSLKPEDTAVYYCNKVEYDGAYDYWGQGTQVTVSS | low polyreactivity
QVQLVESGGGLVQAGGSLRISCAPSGIIFGYNVMGRYRQAPGKERELVAAISGSGASTYYADSVKGRFTISRDNAKNTVYLQMNSLKPEDTAVYYCARYRGYWGRYYGVDYGYWGQGTQVTVSS | high polyreactivity
QVQLVESGGGLVQAGGSLRISCAPSGSTFPHNAMGWYRQAPGKERELVAAISSIGVRTYYADSVKGRFTISRDNAKNTVYLQMNSLKPEDTAVYYCAAEYDGPYTWVEYYYHYGYWGQGTQVTVSS | high polyreactivity
QVQLVESGGGLVQAGGSLRISCDASGSTLRGYSIGWYRQAPGKERELVAAISRRGSGTYYADSVKGRFTISRDNAKNTVYLQMNSLKPEDTAVYYCNAVNGDYEFGYWGQGTQVTVSS | high polyreactivity
QVQLVESGGGLVQAGGSLRISFAASGFTFNLYAMGWYRQAPGKERELVAAISWSGGRTYYADSVKGRFTISRDNAKNTVYLQMNSLKPEDTAVYYCNAPYWTSKSRFDYWGQGTQVTVSS | low polyreactivity
QVQLVESGGGLVQAGGSLRISSAASGRTFATYVMGWYRQAPGKERELVASITRGGSTNYADSVKGRFTISRDNAKNTVYLQMNSLKPEDTAVYYCAASFLATYDYWGLGTQVTVSS | low polyreactivity
QVQLVESGGGLVQAGGSLRISSAASGSIFGRYAMGWYRQAPGKERELVAAISSGTSTYYADSVKGRFTISRDNAKNTVYLQRNSLIPEDTAVYYCAARRYSVRSGGTGRMYYWGQGTQVTVSS | high polyreactivity
QVQLVESGGGLVQAGGSLRISSAASGSITPYYTMGWYRQAPGKERELVATITSGGNTYYADSVKGRFTISRDNAQNTVYLQLNSVKPEDTAVYYCAAEGVWGIFDYWGKGTQVTVSS | low polyreactivity

Sequence | polyreactivity (PSR sort gate)
QVQLVESGGGLVQAGGSLRISWAASGFTFYTYMGWYRQAPGKERELVAAISWSGDSTYYADSVKGRFTISRDNAKNTVYLQMNSLKPEDTAVYYCIADHGGSRYDYWGQGTQVTVSS | low polyreactivity
QVQLVESGGGLVQAGGSLRKSCAASRGILETNAIGWYRQAPGKERELVAAIDFSAGSTYYADSVKGRFTISRDNAKNTVYLQMNSLKPEDTAVYYCATRLGVLYDYWGHGTQVTVSS | low polyreactivity
QVQLVESGGGLVQAGGSLRLAVLPPDLPSTLNDMGWYRQAPGKERELVAAITRGGSTNYADSVKGRFTISRDNAKNTVYLEMNSLKPEDTAVYYCAAPYAGWRDGGDYWGQGTQVTVSS | low polyreactivity
QVQLVESGGGLVQAGGSLRLCCAASGRTFPYYALGWYRQAPGKESELVAGITSNAGSTYYADSVKGRFSISRDNAKNTVYLHRHRLKAEDTAVYYCAKYGRATRGLDNYWGQGTQVTVSS | high polyreactivity
QVQLVESGGGLVQAGGSLRLFCAASGITSSYYAMLWYRQAPGKERDLVADISQSGGSTYYADSVKGRFTISRDNAKNTVYLQMNSLKPEDTAVYYWAADTYWWSYLYDYWGQGTQVTVSS | high polyreactivity
QVQLVESGGGLVQAGGSLRLICAASALIFGAYTMGWYIQAPGKERELVAAIRRSGSTYYPDSVKGRFTISRDNAKNTVYLQMNSLKPEDTAVYYGNARIGPGRYTYYRSGYDYWGQGTQVTVSS | high polyreactivity
QVQLVESGGGLVQAGGSLRLICAASGFIFGGYAMGWYRQAHGKERELVAAISSSGGSTYYADSVKGRFTISRDNAKNTVYLQMNSLKPEDTAVYYCAADRYYYRGRYYGYTREFDYWGQGTQVTVSS | high polyreactivity
QVQLVESGGGLVQAGGSLRLICAASGFIFPVNAMGWYRQAPGKERELVAAITSSGGDTYYADSVKGRFTISRDNAKNTVYLQMNSLKPEDTAVYYFAAEYTQEQEDYDYWGQVTQVTVSS | low polyreactivity
QVQLVESGGGLVQAGGSLRLICAASGFIFRRNARGWSRPAPGTERELVAAISSSGGSTYYADSVKGRFTISRDNAKNTVYLQMNSLKPEDTAVYYCATVLRVTRVDYWGQGTQVTVSS | high polyreactivity
QVQLVESGGGLVQAGGSLRLICAASGFIFRSYAMGWYRQAPGKEREFDAGINRRGGSTYYADSVKGRFTISRDNAKNSVYLQMNILKPEDTAVYYCAAVYYNRVDYWGQGTQVTVSS | high polyreactivity
QVQLVESGGGLVQAGGSLRLICAASGFIFVWYAMGWYRQAPGKERELVAAISRRGGGTYYADSVKGRFTISRDNAKNTVYLQMNSLKPEDTAVYYCAAGSYYRYGYDFNYWGQGTQVTVSS | high polyreactivity
QVQLVESGGGLVQAGGSLRLICAASGFISSENAMGWYRQAPGKERELVAAISSGGSTNYADSVKGRFTISRDNAKYTVYLQMYSLKPEDTAVYYCNAEAIQAVYYAYEYWGQGTQVTVSS | low polyreactivity
QVQLVESGGGLVQAGGSLRLICAASGFTFAGYAMGWYRQARGKDRELVAGIRSSGARTYYADSVKGRFTISRDNAKNTVYIQMNSLKPEDTAVYYCAKTDGFYRGYGYWGQGTQVTVSS | low polyreactivity
QVQLVESGGGLVQAGGSLRLICAASGFTFARYAMGWYRQAPGKERELVAAITSAGSTSYADSVKGRFTISRDNAKNTVYLQMNSLKPEDTAVYYCAAPFTVRYNYWGQGTKVTVSS | high polyreactivity
QVQLVESGGGLVQAGGSLRLICAASGFTFLTYAMGWYRQAPGKERELVAAIDSGDSTKYADSVKGRFTISRDNAKYTVYLQMNSLKPEDTAVYYCNASRRYHVLAPYDYWGQGTQVTVSS | low polyreactivity
QVQLVESGGGLVQAGGSLRLICAASGFTFRRYAMGWYRQAPGKEREFVAVITWSGTRTYYADSVKGRFTISRDNAKNTVYLQMNSLKPEDTAVYYCAAYITDVAGRAYDYWGQGTQVTVSS | high polyreactivity
QVQLVESGGGLVQAGGSLRLICAASGFTFSQYAMGWYREAPGKERELVAAISWNGGSTYYADSVKGRFTISRDNAKNTVYLQMNSLKPEDTAVYYWNRRWPFVRFYYWGQGTQVTVSS | high polyreactivity
QVQLVESGGGLVQAGGSLRLICAASGFTFVANAMGWYRQAPGKERELVAVIDWDDGSTYYADSVKGRFTISRDNAKNTVYLQMYSLKPEDTAVYYCARDVYASPRLYTSRYNYWGQGTQVTVSS | low polyreactivity
QVQLVESGGGLVQAGGSLRLICAASGFTFYKYTMGWYRQAPGKERELVAAISARGGSTYYADSVKGRFTISRDNAKNTVYLQMNSLKPEDTAVYYCAADYWRTYGLGYDYWGQGTQVTVSS | high polyreactivity
QVQLVESGGGLVQAGGSLRLICAASGFTIWFNAMGWYRQAPWKERDLVATIRGSGGTTYYAYSVKGRFTISRDNAKNTVYLQMNSLKPEDTAVYYCAAEGSFRKFDYCGQGTQVTVSS | low polyreactivity
QVQLVESGGGLVQAGGSLRLICAASGFTIYRYAMGWYRQAPGKERELVATIRRGGSTKYADSVKGRFTISRDNAKNTVYLQMNSLKPEDTAVYYCNARYYAAPDKYYYWGQGTQVTVSS | low polyreactivity
